In patent US7361348B2, “Immunogenic glycopeptides, screening, preparation and uses” (priority 2000, dated 2008):
Entries after “also recorded” stand apart in the source; their conditions may differ. Like-named read-outs stand apart in the source and are kept apart here.

Experiments:
[1] = test system: T lymphocytes; experiment: in vitro lymphocyte proliferation assay; assay type: cell-based
Description: The conditions of the assay are those described in Horn et al., mentioned above.

[2] = test system: guinea pigs immunized with live BCG; assay type: in vivo, guinea pig; conditions: for loss of antigenic activity during digestion with α-mannosidase: 0.2 μg intradermally
[3] = test system: guinea pigs immunized with heat-inactivated BCG; assay type: in vivo, guinea pig
[4] = test system: specific CD4+ T lymphocytes; conditions: cited from earlier work
[5] = test system: guinea pigs immunized with the Apa fusion peptide; assay type: in vivo, guinea pig
[6] = test system: guinea pigs immunized with the plasmids pAG831 or pAG832; assay type: in vivo, guinea pig; conditions: antigen 0.2 μg in 100 μl
[7] = guinea pigs immunized with live BCG

Molecule: Lip: Mannosylated glycopeptide purified from M. tuberculosis culture, derived from the protein encoded by the Rv1796 gene (SEQ ID NO:3) (TIPTTETPPPPQTVTLSPVPPQTVTVIPAPPPEEG; not fully specified; mannosylated; MOD_RES (4)..(4) glycosidic bond to a di- or a tri-saccharide; listed as Mycobacterium tuberculosis)
- T-lymphocyte proliferation ([1]; T lymphocytes treated with an antibody directed against CD4 molecules): marginal
- T-lymphocyte proliferation ([1]; glycopeptide treated with α-mannosidase): marginal
- T-lymphocyte proliferation ([1]; native Lip): dependent on the peptide concentration
- delayed-type hypersensitivity of the peptide treated with subtilisin ([2]; 0.02 μg in 0.1 ml, live BCG): abolishes the antigenic activity; also recorded: negative
- delayed-type hypersensitivity of the peptide treated with α-mannosidase ([2]; 0.02 μg in 0.1 ml, live BCG): negative
- antigenic activity after deglycosylation ([2]; after α-mannosidase 24 h at 37° C., live BCG): less than 30 000 TU/mg
- activity relative to the standard purified proteins from M. tuberculosis (PPD) ([2]; at an equivalent amount of proteins, Lip 0.02 μg vs PPD 0.25 μg in 0.1 ml): at least 10 times
- antigenic activity [2, 7]: 1 000 000 TU/mg
- delayed-type hypersensitivity reaction (in words) [2, 7]: very active
- loss of the antigenic activity by action of α-mannosidase ([2]; α-mannosidase 24 h at 37° C.): more than 95%
- delayed-type hypersensitivity reaction (in words) [3]: relatively inactive

B1: Native Apa: Mannosylated protein secreted by M. tuberculosis, product of the Rv 1860 gene, purified from culture supernatant (protein, UniProt P9WIR7 40-325, looked up)
Alanine and proline-rich …: DPEPAPPVPTTAASPPSTAAAPPAPATPVAPPPPAAANTPNAQPGDPNAAPPPADPNAPPPPVIAPNAPQPVRIDNPVGGFSFALPAGWVESDAAHFDYGSALLSKTTGDPPFPGQPPPVANDTRIVLGRLDQKLYASAEATDSKAAARLGSDMGEFYMPYPGTRINQETVSLDANGVSGSASYYEVKFSDPSKPNGQIWTGVIGSPAANAPDAGPPQRWFVVWLGTANNPVDKGAAKALAESIRPLVAPPPAPAPAPAEPAPAPAPAGEVAPTPTTPTPQRTLPA
modifications: native mannosylated
notes: Mannosylated protein secreted by M. tuberculosis, product of the Rv 1860 gene, purified from culture supernatant
- loss of antigenicity on demannosylation ([4]; α-mannosidase, TFMS or expression in E. coli): 100 fold
- delayed hypersensitivity sensitization (in words) [5]: identical
- delayed-type hypersensitivity / CD4+ T lymphocyte response (in words) [6]: equivalent
- loss of antigenic activity during digestion with α-mannosidase ([2]; digestion 1 h, tuberculin titre vs PPD standard): 66%
- loss of antigenic activity during digestion with α-mannosidase ([2]; digestion 4 h (3 to 6 mannose residues remain)): 86%
- delayed-type hypersensitivity reaction (in words) [2, 7]: show a delayed-type hypersensitivity reaction only in response to the native Apa; also recorded: considerable; also recorded: only the glycosylated native Apa is antigenic

B2: E. Coli recombinant Apa: deglycosylated recombinant Apa produced in E. coli (protein, UniProt P9WIR7 40-325, looked up)
Alanine and proline-rich …: DPEPAPPVPTTAASPPSTAAAPPAPATPVAPPPPAAANTPNAQPGDPNAAPPPADPNAPPPPVIAPNAPQPVRIDNPVGGFSFALPAGWVESDAAHFDYGSALLSKTTGDPPFPGQPPPVANDTRIVLGRLDQKLYASAEATDSKAAARLGSDMGEFYMPYPGTRINQETVSLDANGVSGSASYYEVKFSDPSKPNGQIWTGVIGSPAANAPDAGPPQRWFVVWLGTANNPVDKGAAKALAESIRPLVAPPPAPAPAPAEPAPAPAPAGEVAPTPTTPTPQRTLPA
modifications: non-glycosylated, produced in E. coli
- delayed-type hypersensitivity / CD4+ T lymphocyte response (in words) [6]: of the same strength as the responses observed with the glycosylated native antigen
- delayed-type hypersensitivity / CD4+ T lymphocyte response (in words) ([6]; listed as E. coli rApa): equivalent
- delayed-type hypersensitivity reaction (in words) ([2]; guinea pigs immunized with live BCG, listed as molecules produced in E. coli): very weak or absent
- delayed-type hypersensitivity reaction (in words) ([2]; guinea pigs immunized with live BCG, listed as non-glycosylated recombinant Apa produced in E. coli): no reaction or develop a greatly decreased reaction

B3: glycosylated Apa produced by Mycobacterium smegmatis: Glycosylated Apa produced by M. smegmatis, overall mannose composition slightly different from M. tuberculosis Apa (protein, UniProt P9WIR7 40-325, looked up)
Alanine and proline-rich …: DPEPAPPVPTTAASPPSTAAAPPAPATPVAPPPPAAANTPNAQPGDPNAAPPPADPNAPPPPVIAPNAPQPVRIDNPVGGFSFALPAGWVESDAAHFDYGSALLSKTTGDPPFPGQPPPVANDTRIVLGRLDQKLYASAEATDSKAAARLGSDMGEFYMPYPGTRINQETVSLDANGVSGSASYYEVKFSDPSKPNGQIWTGVIGSPAANAPDAGPPQRWFVVWLGTANNPVDKGAAKALAESIRPLVAPPPAPAPAPAEPAPAPAPAGEVAPTPTTPTPQRTLPA
modifications: glycosylated, produced in M. smegmatis
- decrease of antigenic activity versus Apa produced by M. tuberculosis [4]: approximately 10 fold

B4: Deglycosylated Apa: deglycosylated Apa protein prepared as described in example 1 (α-mannosidase digestion) (protein, UniProt P9WIR7 40-325, looked up)
Alanine and proline-rich …: DPEPAPPVPTTAASPPSTAAAPPAPATPVAPPPPAAANTPNAQPGDPNAAPPPADPNAPPPPVIAPNAPQPVRIDNPVGGFSFALPAGWVESDAAHFDYGSALLSKTTGDPPFPGQPPPVANDTRIVLGRLDQKLYASAEATDSKAAARLGSDMGEFYMPYPGTRINQETVSLDANGVSGSASYYEVKFSDPSKPNGQIWTGVIGSPAANAPDAGPPQRWFVVWLGTANNPVDKGAAKALAESIRPLVAPPPAPAPAPAEPAPAPAPAGEVAPTPTTPTPQRTLPA
modifications: deglycosylated
- delayed hypersensitivity sensitization (in words) [5]: identical
- delayed-type hypersensitivity / CD4+ T lymphocyte response (in words) [6]: of the same strength as the responses observed with the glycosylated native antigen
- delayed-type hypersensitivity reaction (in words) [2, 7]: very weak or absent
